The values that follow come from the supplement of paper PMC10567573.

First the molecules themselves.
B1: TRAF3IP2 (parent)
chain: FMEKRNQWLVSQLSAASPDTGHDS
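Note: lentivirally expressed fusions sorted by FACS into six bins by GFP to DsRed ratio, PSI derived from sequencing read proportions per bin multiplied by bin number.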

The data set covers variants of B1. The data set can be described thus: protein stability index of a GFP-peptide fusion (GPS, HEK-293T) (PSI 1-6); higher = more stable. To be noted: c terminus: a fixed tail appended.
For the variant FMEKRNTWLVSQLSAASPDTGHDS [Q7T], the protein stability index worked out at 1.79.

Take FMEKRNAWLVSQLSAASPDTGHDS [Q7A]: the protein stability index came to 1.02.

FMEKRNMWLVSQLSAASPDTGHDS [Q7M]: the protein stability index was found to be 1.8.

As to FMEKRNHWLVSQLSAASPDTGHDS [Q7H], the protein stability index turned out to be 2.26.

Regarding FMEKRNNWLVSQLSAASPDTGHDS [Q7N], the protein stability index came to 2.65.

On to FMEKRNRWLVSQLSAASPDTGHDS [Q7R], for which the protein stability index is 2.98.

As for FMEKRNVWLVSQLSAASPDTGHDS [Q7V], the protein stability index came to 1.81.

On to FMEKRNWWLVSQLSAASPDTGHDS [Q7W], for which the protein stability index is 2.86.

Turning to FMEKRNDWLVSQLSAASPDTGHDS [Q7D], the protein stability index stood at 3.31.

FMEKRNPWLVSQLSAASPDTGHDS [Q7P]: the protein stability index worked out at 1.58.

In the case of FMEKRNSWLVSQLSAASPDTGHDS [Q7S], the protein stability index amounted to 1.64.

In the case of FMEKRNYWLVSQLSAASPDTGHDS [Q7Y], the protein stability index was 2.88.

Consider FMEKRNKWLVSQLSAASPDTGHDS [Q7K], for which the protein stability index worked out at 3.36.

For the variant FMEKRNCWLVSQLSAASPDTGHDS [Q7C], the protein stability index turned out to be 1.87.

For FMEKRNIWLVSQLSAASPDTGHDS [Q7I], the protein stability index was 2.35.

On to FMEKRNEWLVSQLSAASPDTGHDS [Q7E], for which the protein stability index is 2.72.

In the case of FMEKRNQWLVVQLSAASPDTGHDS [S11V], the protein stability index was determined as 2.4.

FMEKRNQWLVYQLSAASPDTGHDS [S11Y]: the protein stability index stood at 2.64.

With FMEKRNQWLVPQLSAASPDTGHDS [S11P], the protein stability index was found to be 2.9.

For FMEKRNQWLVLQLSAASPDTGHDS [S11L], the protein stability index was 1.46.

For FMEKRNQWLVGQLSAASPDTGHDS [S11G], the protein stability index came to 3.32.

As for FMEKRNQWLVDQLSAASPDTGHDS [S11D], the protein stability index is 3.79.

As for FMEKRNQWLVEQLSAASPDTGHDS [S11E], the protein stability index is 3.27.

Regarding FMEKRNQWLVQQLSAASPDTGHDS [S11Q], the protein stability index was found to be 2.89.

Take FMEKRNQWLVIQLSAASPDTGHDS [S11I]: the protein stability index came out at 2.06.

For the variant FMEKRNQWLVNQLSAASPDTGHDS [S11N], the protein stability index came out at 3.18.

Regarding FMEKRNQWLVWQLSAASPDTGHDS [S11W], the protein stability index came to 3.25.

In the case of FMEKRNQWLVTQLSAASPDTGHDS [S11T], the protein stability index was found to be 2.19.

FMEKRNQWLVAQLSAASPDTGHDS [S11A]: the protein stability index is 1.94.

For the variant FMEKRNQWLVRQLSAASPDTGHDS [S11R], the protein stability index stood at 3.3.

On to FMEKRNQWLVKQLSAASPDTGHDS [S11K], for which the protein stability index worked out at 2.7.

For FMEKRNQWLVHQLSAASPDTGHDS [S11H], the protein stability index is 2.63.

On to FMEKRNQWLVMQLSAASPDTGHDS [S11M], for which the protein stability index was 1.71.

As to FMEKRNQWLVCQLSAASPDTGHDS [S11C], the protein stability index was 2.22.

With FMEKRNQWLVSQLPAASPDTGHDS [S14P], the protein stability index amounted to 2.53.

Regarding FMEKRNQWLVSQLGAASPDTGHDS [S14G], the protein stability index worked out at 2.3.

With FMEKRNQWLVSQLKAASPDTGHDS [S14K], the protein stability index turned out to be 2.41.

As for FMEKRNQWLVSQLDAASPDTGHDS [S14D], the protein stability index was 3.29.

As for FMEKRNQWLVSQLNAASPDTGHDS [S14N], the protein stability index was 2.58.

In the case of FMEKRNQWLVSQLAAASPDTGHDS [S14A], the protein stability index is 2.34.

Turning to FMEKRNQWLVSQLTAASPDTGHDS [S14T], the protein stability index amounted to 2.77.

As for FMEKRNQWLVSQLEAASPDTGHDS [S14E], the protein stability index is 2.74.

As to FMEKRNQWLVSQLRAASPDTGHDS [S14R], the protein stability index came to 2.39.

On to FMEKRNQWLVSQLFAASPDTGHDS [S14F], for which the protein stability index was found to be 1.93.

Turning to FMEKRNQWLVSQLIAASPDTGHDS [S14I], the protein stability index was 2.08.

On to FMEKRNQWLVSQLCAASPDTGHDS [S14C], for which the protein stability index came to 2.15.

Turning to FMEKRNQWLVSQLLAASPDTGHDS [S14L], the protein stability index was 1.66.

For FMEKRNQWLVSQLVAASPDTGHDS [S14V], the protein stability index was 1.65.

In the case of FMEKRNQWLVSQLQAASPDTGHDS [S14Q], the protein stability index came to 2.57.

In the case of FMEKRNQWLVSQLYAASPDTGHDS [S14Y], the protein stability index came to 1.63.

For the variant FMEKRNQWLVSQLHAASPDTGHDS [S14H], the protein stability index came to 2.48.

For FMEKRNQWLVSQLWAASPDTGHDS [S14W], the protein stability index was found to be 1.89.

Take FMEKRNQWLVSQLMAASPDTGHDS [S14M]: the protein stability index is 2.34.

Turning to FMEKRNQWLVSPLSAASPDTGHDS [Q12P], the protein stability index turned out to be 2.71.

Turning to FMEKRNQWLVSELSAASPDTGHDS [Q12E], the protein stability index worked out at 3.33.

On to FMEKRNQWLVSMLSAASPDTGHDS [Q12M], for which the protein stability index stood at 1.68.

FMEKRNQWLVSDLSAASPDTGHDS [Q12D]: the protein stability index was 3.21.

In the case of FMEKRNQWLVSFLSAASPDTGHDS [Q12F], the protein stability index amounted to 1.94.

As to FMEKRNQWLVSWLSAASPDTGHDS [Q12W], the protein stability index amounted to 1.45.

In the case of FMEKRNQWLVSSLSAASPDTGHDS [Q12S], the protein stability index came to 1.77.

With FMEKRNQWLVSRLSAASPDTGHDS [Q12R], the protein stability index came to 2.33.

As to FMEKRNQWLVSILSAASPDTGHDS [Q12I], the protein stability index was determined as 1.89.

For the variant FMEKRNQWLVSLLSAASPDTGHDS [Q12L], the protein stability index stood at 1.65.

With FMEKRNQWLVSCLSAASPDTGHDS [Q12C], the protein stability index is 1.85.

Regarding FMEKRNQWLVSVLSAASPDTGHDS [Q12V], the protein stability index was determined as 1.53.

For the variant FMEKRNQWLVSHLSAASPDTGHDS [Q12H], the protein stability index was determined as 3.89.

In the case of FMEKRNQWLVSALSAASPDTGHDS [Q12A], the protein stability index was determined as 2.04.

As for FMEKRNQWLVSYLSAASPDTGHDS [Q12Y], the protein stability index turned out to be 1.98.

As for FMEKRNQWLVSNLSAASPDTGHDS [Q12N], the protein stability index is 2.81.

Take FMEKRNQWLVSTLSAASPDTGHDS [Q12T]: the protein stability index turned out to be 1.7.

FMEKRNQWLVSKLSAASPDTGHDS [Q12K]: the protein stability index was 1.77.

Consider FMEKRNQHLVSQLSAASPDTGHDS [W8H], for which the protein stability index amounted to 4.43.

On to FMEKRNQVLVSQLSAASPDTGHDS [W8V], for which the protein stability index came to 4.79.

For the variant FMEKRNQMLVSQLSAASPDTGHDS [W8M], the protein stability index came out at 4.72.

On to FMEKRNQLLVSQLSAASPDTGHDS [W8L], for which the protein stability index came to 4.45.

In the case of FMEKRNQALVSQLSAASPDTGHDS [W8A], the protein stability index came to 4.75.

FMEKRNQFLVSQLSAASPDTGHDS [W8F]: the protein stability index is 3.95.

As for FMEKRNQILVSQLSAASPDTGHDS [W8I], the protein stability index stood at 4.25.

With FMEKRNQQLVSQLSAASPDTGHDS [W8Q], the protein stability index was found to be 4.63.

FMEKRNQKLVSQLSAASPDTGHDS [W8K]: the protein stability index is 4.57.

In the case of FMEKRNQDLVSQLSAASPDTGHDS [W8D], the protein stability index stood at 5.06.

Regarding FMEKRNQSLVSQLSAASPDTGHDS [W8S], the protein stability index turned out to be 4.93.

Regarding FMEKRNQPLVSQLSAASPDTGHDS [W8P], the protein stability index is 4.58.

On to FMEKRNQYLVSQLSAASPDTGHDS [W8Y], for which the protein stability index was 4.21.

Take FMEKRNQCLVSQLSAASPDTGHDS [W8C]: the protein stability index was found to be 4.71.

As for FMEKRNQRLVSQLSAASPDTGHDS [W8R], the protein stability index stood at 4.68.

Consider FMEKRNQELVSQLSAASPDTGHDS [W8E], for which the protein stability index worked out at 4.74.

As to FMEKRNQGLVSQLSAASPDTGHDS [W8G], the protein stability index was 5.09.

With FMEKRNQNLVSQLSAASPDTGHDS [W8N], the protein stability index was determined as 5.08.

As to FMEKRNQTLVSQLSAASPDTGHDS [W8T], the protein stability index came to 5.2.

Consider FMEKRNQWLVSQDSAASPDTGHDS [L13D], for which the protein stability index turned out to be 3.45.

Take FMEKRNQWLVSQMSAASPDTGHDS [L13M]: the protein stability index amounted to 2.48.

FMEKRNQWLVSQVSAASPDTGHDS [L13V]: the protein stability index came out at 2.61.

Turning to FMEKRNQWLVSQSSAASPDTGHDS [L13S], the protein stability index is 3.17.
